Experiments:
[1] = molecular target: Halimeda borneensis lectin HBL40 (Halimeda borneensis); test: SDS-PAGE, non-reducing against reducing; purified HBL40 on 12% gel with and without 2% 2-mercaptoethanol, Coomassie stain; about 40 kDa non-reducing, 20 kDa reducing
[2] = molecular target: influenza viral envelope hemagglutinin, vaccine preparation (Denka-Seken) with a mixture of the hema (influenza A virus (H1N1, H3N2) and influenza B virus); test: SPR; BIAcore X100; […]; HBS-N (10 mM HEPES, 150 mM NaCl, pH 7.4), 30 μL/min, […], dissociation 600 s; Langmuir 1:1 fit
[3] = molecular target: bovine submaxillary mucin (bovine)
[4] = molecular target: porcine thyroglobulin (porcine) (UniProt F1RRV3)
asialo-fetuin = asialo-fetuin (UniProt P12763)
asialo-transferrin = asialo-transferrin (UniProt P02787)
transferrin = transferrin (UniProt P02787)
[5] = molecular target: asialo-porcine thyroglobulin (porcine) (UniProt F1RRV3)
fetuin = fetuin (UniProt P12763)
[6] = molecular target: asialo-bovine submaxillary mucin (bovine)

Halimeda borneensis lectin HBL40 (natural protein)
stoichiometry N [1]: 2
Kd [2]: 1210 nM
koff [2]: 0.0433 s⁻¹
kon [2]: 35600 M⁻¹ s⁻¹
hemagglutination inhibition (trypsin-treated rabbit erythrocytes): lowest concentration of glycoprotein that completely inhibited the hemagglutination activity of a lectin solution of titer 4 [3]: 62.5 µg/mL
hemagglutination inhibition (trypsin-treated rabbit erythrocytes): lowest concentration of glycoprotein that completely inhibited the hemagglutination activity of a lectin solution of titer 4 [4]: 31.3 µg/mL
hemagglutination inhibition (trypsin-treated rabbit erythrocytes): lowest concentration of glycoprotein that completely inhibited the hemagglutination activity of a lectin solution of titer 4 (asialo-fetuin): 125 µg/mL
hemagglutination inhibition (trypsin-treated rabbit erythrocytes): lowest concentration of glycoprotein that completely inhibited the hemagglutination activity of a lectin solution of titer 4 (asialo-transferrin): 62.5 µg/mL
hemagglutination inhibition (trypsin-treated rabbit erythrocytes): lowest concentration of glycoprotein that completely inhibited the hemagglutination activity of a lectin solution of titer 4 (transferrin): 500 µg/mL
hemagglutination inhibition (trypsin-treated rabbit erythrocytes): lowest concentration of glycoprotein that completely inhibited the hemagglutination activity of a lectin solution of titer 4 [5]: 15.6 µg/mL
hemagglutination inhibition (trypsin-treated rabbit erythrocytes): lowest concentration of glycoprotein that completely inhibited the hemagglutination activity of a lectin solution of titer 4 (fetuin): 1000 µg/mL
hemagglutination inhibition (trypsin-treated rabbit erythrocytes): lowest concentration of glycoprotein that completely inhibited the hemagglutination activity of a lectin solution of titer 4 [6]: 31.3 µg/mL

Reference: PMC11050134
